Patent publication US20040072240A1
Read-outs that look alike come from different tables or passages of the source.

Experiments:
[1] = target: HLA A2.1 molecule (human); assay: T2 cells, flow cytometry (BB7.2); complex dissociation
[2] = target: HLA A2.1 molecule (human); assay: T2 cells, flow cytometry (BB7.2); reference HIVpol 589
[3] = target: HLA A2.1 molecule (human); assay: T2 cells, flow cytometry; P1Y variant against its natural peptide
[4] = target: HLA A2.1 molecule (human); assay: T2 cells, flow cytometry (BB7.2); reference I9V
[5] = remark: other sources report otherwise

Row | Binder | DC50 [1] [h] | RA (relative affinity) [2] | DC50 Y1-DC50 WT [3] [h] | RA WT/RA Y1 [3] | further results
1 | LLGCAANWIL (modifications not checked) [HBVpol 765] | 4 | 2 | – | – | –
2 | YLYRYGSFSV (modifications not checked) [gp100 476Y1] | – | – | 2 | 4.2 | –
3 | YLDGTATLRL (modifications not checked) [gp100 457Y1] | – | – | > 2 | 2.3 | –
4 | YIFGSLAFL (modifications not checked) [HER-2/neu 369Y1] | – | – | > 2 | 3.9 | –
5 | YLMPYGCLL (modifications not checked) [P1Y variant of HER-2/neu 799] | – | – | > 2 | 3.9 | –
6 | YLYQGCQVV (modifications not checked) [P1Y variant of HER-2/neu 48] | – | – | 0 | 3 | –
7 | YMAGVGSPYV (modifications not checked) [P1Y variant of HER-2/neu 773] | – | – | 2 | 2 | –
8 | YLCRWGLLL (modifications not checked) [HER-2/neu 5Y1] | – | – | 0 | 1.1 | –
9 | YLLAVLYCL (modifications not checked) [P1Y variant of Tyrosinase 1] | – | – | > 2 | > 3.7 | –
10 | YLTVILGVL (modifications not checked) [P1Y variant of Mart-1 32] | – | – | 2 | 16.2 | –
11 | YLVKSPNHV (modifications not checked) [P1Y variant of HER-2/neu 851] | – | – | 2 | 3 | –
12 | YLLVVVLGV (modifications not checked) [HER-2/neu 661Y1] | – | – | 2 | > 1.5 | –
13 | YLTGDENFTI (modifications not checked) [P1Y variant of Tyrosinase 224] | – | – | > 2 | > 5.1 | –
14 | YLPWHRLFLL (modifications not checked) [P1Y variant of Tyrosinase 207] | – | – | > 4 | > 6.4 | –
15 | YLIHHNTHL (modifications not checked) [HER-2/neu 466Y1] | 6 | 1.4 | > 4 | 3.3 | –
16 | AMLGTHTMEV (modifications not checked) [gp100 177] | > 6 | 0.5 | – | – | –
17 | YLEEITGYL (modifications not checked) [HER-2/neu 402Y1] | 4 | 3.7 | > 2 | 5.2 | –
18 | YLQPEQLQV (modifications not checked) [HER-2/neu 391Y1] | 8 | 1.3 | > 6 | 55.5 | –
19 | YLVSEFSRM (modifications not checked) [P1Y variant of HER-2/neu 971] | – | – | 2 | 11.6 | –
20 | MLGTHTMEV (modifications not checked) [gp100 178] | – | 0.3 | – | – | –
21 | LLDTGADDTV (modifications not checked) [pol79] | < 2 | – | – | – | RA (relative affinity) [4]: 10
22 | KLTPLCVSL (modifications not checked) [K9L] | > 6 | – | – | – | RA (relative affinity) [4]: 1.35
23 | ILATFLAWL (modifications not checked) [mp 530] | > 6 | 0.8 | – | – | –
24 | FLFWLMDTYV (modifications not checked) [mp 534] | > 6 | 0.2 | – | – | –
25 | QLLRSFFHFL (modifications not checked) [mp 545] | > 6 | 1.8 | – | – | –
26 | SLFDFFHFL (modifications not checked) [mp 797] | > 6 | 1.5 | – | – | –
27 | FLSTLVHGV (modifications not checked) [mp 876] | > 6 | 1.2 | – | – | –
28 | ILAKFLHWL (modifications not checked) [mhp 540] | > 6 | 0.3 | – | – | –

Row | Binder | DC50 [1] [h] | RA (relative affinity) [2] | DC50 Y1-DC50 WT [3] [h] | RA WT/RA Y1 [3] | further results
29 | RLFFYRKSV (modifications not checked) [mhp 572] | < 2 | 25.3 | – | – | –
30 | DLQVNSLQTV (modifications not checked) [mhp 988] | < 2 | 28.6 | – | – | –
31 | SLADTNSLAV (modifications not checked) [gp100 570] | – | 1 | – | – | –
32 | YLFFYRKSV (modifications not checked) [mhp 572Y1] | 5 | 2.2 | – | – | –
33 | YLQVNSLQTV (modifications not checked) [mhp 988Y1] | > 6 | 2.1 | – | – | –
34 | VLYRYGSFSV (modifications not checked) [gp100 476] | 6 | 10 | – | – | –
35 | LLDGTATLRL (modifications not checked) [gp100 457] | – | 1.6 | – | – | –
36 | QLMPYGCLL (modifications not checked) [HER-2/neu 799] | – | 1 | – | – | –
37 | HLYQGCQVV (modifications not checked) [HER-2/neu 48] | > 8 | 1.7 | – | – | –
38 | VMAGVGSPYV (modifications not checked) [HER-2/neu 773] | 6 | 1.7 | – | – | –
39 | ALCRWGLLL (modifications not checked) [HER-2/neu 5] | > 8 | – | – | – | –
40 | MLLAVLYCL (modifications not checked) [Tyrosinase 1] | – | > 60 | – | – | –
41 | ILTVILGVL (modifications not checked) [mart-1 32] | 4 | 21.1 | – | – | –
42 | VLVKSPNHV (modifications not checked) [HER-2/neu 851] | 4 | 24 | – | – | –
43 | ILLVVVLGV (modifications not checked) [HER-2/neu 661] | – | > 60 | – | – | –
44 | YLVPQQGFFC (modifications not checked) [HER-2/neu 1023] | 4 | 19.6 | – | – | –
45 | PLEEELPRL (modifications not checked) [HBVpol 594] | – | – | – | – | DC50 [1, 5]: < 2 h; RA (relative affinity) [2, 5]: 4.2
46 | KLTGDENFTI (modifications not checked) [Tyrosinase 224] | < 2 | > 50 | – | – | –
47 | FLPWHRLFLL (modifications not checked) [Tyrosinase 207] | 2 | > 50 | – | – | –
48 | PLTSIISAV (modifications not checked) [HER-2/neu 650] | < 2 | 1.4 | – | – | –
49 | ALIHHNTHL (modifications not checked) [HER-2/neu 466] | 2 | – | – | – | –
50 | TLEEITGYL (modifications not checked) [HER-2/neu 402] | < 2 | 19 | – | – | –
51 | PLQPEQLQV (modifications not checked) [HER-2/neu 391] | 2 | > 70 | – | – | –
52 | ELVSEFSRM (modifications not checked) [HER-2/neu 971] | 2 | > 70 | – | – | –
53 | YMLGTHTMEV (modifications not checked) [gp100 177Y1] | – | – | 2 | 0.6 | –
54 | YLGTHTMEV (modifications not checked) [P1Y variant of gp100 178] | – | – | 2 | 0.8 | –
55 | YLADTNSLAV (modifications not checked) [gp100 570Y1] | – | – | > 2 | 3.4 | –
